Three molecules from patent publication US20220251236A1 (Boehringer Ingelheim, published 2022) can be followed below.

In assay [1] the target is T1, trypsin inhibitor from glycine max soybean (Glycine max (soybean)).
T1 construct: also called Tryp
As to the kind of experiment: SPR (Biacore T200), trypsin inhibitor on CM5 chip, sample at 1 µM. From the text:
To prepare the surface for the non-specific binding experiment, chicken egg white lysozyme and trypsin inhibitor from glycine max soybean were coupled manually to a series S CM5 chip with the surface density of 3000-5000 RU using the amine coupling kit according to the manufacture instructions.

Another assay addresses T2, Human CD3 E+G HuFc-6xHis (human).
T2 construct: also called hu CD3εγ-Fc
Kind of assay: SPR (ProteOn XPR36), HuCD3E_HuCD3G-Fc amine-coupled, bispecific as analyte, Example 4B. The essentials:
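Human CD3ε/γ-Fc fusion is amine-coupled to the chip at pH 4.5. Anti-DLL3/CD3 bispecifics are injected as analyte in PBS-T-EDTA at 30 μl/min, with 600 s association and 1800 s dissociation. Binding kinetics are measured by SPR.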

The next assay concerns the target T3, Human DLL3-His (human, UniProt Q9NYJ7 27-492).
T3 construct: also called huDLL3-His; hu DLL3
T3 sequence: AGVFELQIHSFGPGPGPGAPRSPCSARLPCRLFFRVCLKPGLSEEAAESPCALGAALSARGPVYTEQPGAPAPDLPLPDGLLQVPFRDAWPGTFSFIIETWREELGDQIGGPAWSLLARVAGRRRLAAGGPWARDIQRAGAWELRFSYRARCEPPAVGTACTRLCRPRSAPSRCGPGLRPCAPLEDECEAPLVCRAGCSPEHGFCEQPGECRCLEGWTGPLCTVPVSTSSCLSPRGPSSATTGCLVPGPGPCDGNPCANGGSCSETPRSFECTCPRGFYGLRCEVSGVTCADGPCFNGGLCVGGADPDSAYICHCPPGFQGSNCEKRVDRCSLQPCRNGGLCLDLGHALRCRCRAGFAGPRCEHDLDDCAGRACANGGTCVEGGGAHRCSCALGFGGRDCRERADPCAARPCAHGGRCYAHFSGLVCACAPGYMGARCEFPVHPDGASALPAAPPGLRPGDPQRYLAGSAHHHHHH
Kind of assay: SPR (ProteOn XPR36), bispecific captured on protein A/G, hu DLL3 as analyte, Example 4B. The essentials: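 Bispecific constructs captured on protein A/G for 200 s at 30 μl/min, baseline stabilized with PBS-T-EDTA. Human DLL3 analyte injected 300 s at 30 μl/min; dissociation followed for 1800 s.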

Assay [2] deals with T4, FLAG-tagged human DLL1 full length (human, UniProt O00548 1-723).
T4 construct: also called human DLL1 on HEK293 cells
T4 sequence: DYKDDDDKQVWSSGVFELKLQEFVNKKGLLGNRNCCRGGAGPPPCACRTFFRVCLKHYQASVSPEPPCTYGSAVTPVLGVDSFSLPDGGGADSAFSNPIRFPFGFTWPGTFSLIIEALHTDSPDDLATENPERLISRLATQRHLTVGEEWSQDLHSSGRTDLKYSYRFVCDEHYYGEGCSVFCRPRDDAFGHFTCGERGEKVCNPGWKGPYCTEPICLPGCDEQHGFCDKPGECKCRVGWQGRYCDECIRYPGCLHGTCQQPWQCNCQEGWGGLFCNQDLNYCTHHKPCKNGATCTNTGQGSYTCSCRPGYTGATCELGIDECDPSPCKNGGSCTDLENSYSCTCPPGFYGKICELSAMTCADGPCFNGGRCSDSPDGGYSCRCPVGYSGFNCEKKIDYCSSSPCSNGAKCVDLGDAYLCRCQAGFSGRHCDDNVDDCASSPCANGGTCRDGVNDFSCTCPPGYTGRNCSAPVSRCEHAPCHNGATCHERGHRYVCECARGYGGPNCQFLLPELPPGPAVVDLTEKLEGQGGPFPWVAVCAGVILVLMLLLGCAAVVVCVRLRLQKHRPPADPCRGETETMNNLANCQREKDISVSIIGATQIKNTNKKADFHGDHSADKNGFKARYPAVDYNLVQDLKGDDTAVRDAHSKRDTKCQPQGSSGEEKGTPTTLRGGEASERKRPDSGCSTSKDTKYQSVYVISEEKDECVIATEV
Kind of assay: flow cytometry on HEK293 cells expressing human DLL1 (HEK293-huDLL1), PE anti-human secondary, control: secondary antibody only. As for the experimental part: Bound molecules were detected with PE-conjugated anti-human secondary antibody (Sigma-Aldrich, #P8047). As negative control, cells were incubated with secondary antibody only. The samples were measured by flow-cytometry.
For orientation: A flow cytometer gives signals particle by particle.

For another assay, the target named is T5, EGF5+6.
T5 construct: also called Hu DLL3 EGF5+6 on HEK293 cells
T5 membrane-anchored DLL3 subdomain construct: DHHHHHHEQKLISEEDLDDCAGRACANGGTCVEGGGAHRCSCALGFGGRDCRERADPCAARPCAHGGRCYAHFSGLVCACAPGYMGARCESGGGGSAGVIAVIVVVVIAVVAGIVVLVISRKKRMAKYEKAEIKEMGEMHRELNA
Kind of assay: flow cytometry on HEK293 cells expressing the DLL3 subdomain construct, PE anti-human secondary, control: secondary antibody only. The method, boiled down: (§1)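 Binders tested on HEK293 cells displaying the DLL3 subdomain construct; bound molecules detected by flow cytometry using PE-conjugated anti-human secondary antibody. Negative control: cells with secondary antibody only.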

Assay [3] deals with T6, EGF6+MEMBRANE PROXIMAL PEPTIDE.
T6 construct: also called Hu DLL3 EGF6+membrane proximal peptide on HEK293 cells
T6 membrane-anchored DLL3 subdomain construct: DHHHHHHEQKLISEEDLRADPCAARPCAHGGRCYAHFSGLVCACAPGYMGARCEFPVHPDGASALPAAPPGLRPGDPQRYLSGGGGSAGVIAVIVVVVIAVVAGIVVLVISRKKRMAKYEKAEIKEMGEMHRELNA
The description is as above. The essentials: as §1

Substitutions are numbered along the chain they refer to.

T1 sequence (P01070 25-205): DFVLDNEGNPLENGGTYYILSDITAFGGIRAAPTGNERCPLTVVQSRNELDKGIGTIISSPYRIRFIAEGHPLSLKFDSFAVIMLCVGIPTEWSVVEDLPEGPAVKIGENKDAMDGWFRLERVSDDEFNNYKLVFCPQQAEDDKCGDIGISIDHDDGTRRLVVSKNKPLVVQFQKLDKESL
T2 sequence (chain, as listed by the source limits assumed): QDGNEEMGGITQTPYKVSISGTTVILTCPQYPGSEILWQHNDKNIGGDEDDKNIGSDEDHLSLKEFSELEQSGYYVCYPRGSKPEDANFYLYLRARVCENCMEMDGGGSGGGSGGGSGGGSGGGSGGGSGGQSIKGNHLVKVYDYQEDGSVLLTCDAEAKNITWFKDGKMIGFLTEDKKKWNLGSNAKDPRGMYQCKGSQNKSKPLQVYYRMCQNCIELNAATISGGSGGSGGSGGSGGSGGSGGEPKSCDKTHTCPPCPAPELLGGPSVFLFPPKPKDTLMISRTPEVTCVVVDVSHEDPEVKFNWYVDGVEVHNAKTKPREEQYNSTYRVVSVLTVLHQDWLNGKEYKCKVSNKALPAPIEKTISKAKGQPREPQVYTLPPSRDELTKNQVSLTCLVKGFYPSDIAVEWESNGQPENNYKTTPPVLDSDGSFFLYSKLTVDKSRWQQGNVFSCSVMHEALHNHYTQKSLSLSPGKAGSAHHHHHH

B1: DLL3#3/CD3#2 (bispecific antibody, human IgG1, kappa, lambda, L234A L235A)
chain 1: DIQMTQSPSAMSASVGDRVTITCRASQGISNYLVWFQQKPGKAPKRLIYAVSSLYSGVPSRFSGSGSGTEFTLTISSLQPEDFATYYCLQHDSYPYTFGQGTKLEIKRTVAAPSVFIFPPSDEQLKSGTASVVCLLNNFYPREAKVQWKVDNALQSGNSQESVTEQDSKDSTYSLSSTLTLSKADYEKHKVYACEVTHQGLSSPVTKSFNRGECGGGGSEGKSSGSGSESKSTEGKSSGSGSESKSTGGGGSQVQLVQSGAEVKKPGASVKVSCKASGYTFTSYYVHWVRQAPGQGLEWMVIINPGGGTTSYAQKFLGRVTMTRDTSTNTVYMELKSLRSEDTAVYYCARGEAVTGNYFYYGMDVWGQGTTVTVSSASTKGPSVFPLAPSSKSTSGGTAALGCLVKDYFPEPVTVSWNSGALTSGVHTFPAVLQSSGLYSLSSVVTVPSSSLGTQTYICNVNHKPSNTKVDKRVEPKSCDKTHTCPPCPAPEAAGGPSVFLFPPKPKDTLMISRTPEVTCVVVDVSHEDPEVKFNWYVDGVEVHNAKTKPREEQYNSTYRVVSVLTVLHQDWLNGKEYKCKVSNKALPAPIEKTISKAKGQPREPQVYTLPPSREEMTKNQVSLWCLVKGFYPSDIAVEWESNGQPENNYKTTPPVLDSDGSFFLYSKLTVDKSRWQQGNVFSCSVMHEALHNHYTQKSLSLSPG
chain 2: EAVVTQEPSLTVSPGGTVTLTCRSSTGAVTTSNYANWVQEKPGQLPRGLIGGTNKRAPWVPARFSGSLLGGKAALTLSGAQPEDEAEYFCALWYSNLWVFGGGTKLTVLGQPKAAPSVTLFPPSSEELQANKATLVCLISDFYPGAVKVAWKADGSPVNTGVETTTPSKQSNNKYAASSYLSLTPEQWKSHRSYSCQVTHEGSTVEKTVAPAECSGGGGSEGKSSGSGSESKSTEGKSSGSGSESKSTGGGGSEVQLVESGGGLVQPGGSLKLSCAASGFTFNTYAMNWVRQAPGKGLEWVARIRSKYINYATYYADSVKDRFTISRDDSKNTAYLQMNNLKTEDTAVYYCVRHGNFGNSYVSWFAYWGQGTLVTVSAASTKGPSVFPLAPSSKSTSGGTAALGCLVKDYFPEPVTVSWNSGALTSGVHTFPAVLQSSGLYSLSSVVTVPSSSLGTQTYICNVNHKPSNTKVDKRVEPKSCDKTHTCPPCPAPEAAGGPSVFLFPPKPKDTLMISRTPEVTCVVVDVSHEDPEVKFNWYVDGVEVHNAKTKPREEQYNSTYRVVSVLTVLHQDWLNGKEYKCKVSNKALPAPIEKTISKAKGQPREPQVYTLPPSREEMTKNQVSLSCAVKGFYPSDIAVEWESNGQPENNYKTTPPVLDSDGSFFLVSKLTVDKSRWQQGNVFSCSVMHEALHNRFTQKSLSLSPG
notes: Heterodimer of one DLL3 chain and one CD3 chain (scFab-Fc, knob-in-hole)
With B1, in assay [1], the “Non-specific binding (RU)” value came to 36 RU. In addition, the figures for the Kd with Human CD3 E+G HuFc-6xHis and with Human DLL3-His were 7 nM and 0.12 nM, respectively. In addition, the binding result (in assay [2]; in the assay with EGF5+6) was “no binding (tested: 1.6 nM)” throughout.

B2: DLL3#5/CD3#1 (bispecific antibody, human IgG1, kappa, lambda, L234A L235A)
chain 1: not shown
chain 2: B1 chain 2 with I309N
notes: as for B1
For the molecule B2, in assay [1], the “Non-specific binding (RU)” value stood at 0 RU. Also, the Kd is 3 nM with Human CD3 E+G HuFc-6xHis and below 0.02 nM in the assay with Human DLL3-His. Also, the binding result (in assay [2]; in the assay with EGF5+6; in assay [3]) was “no binding (tested: 1.6 nM)” in each case.

B3: DLL3#4/CD3#1 (bispecific antibody, human IgG1, kappa, lambda, L234A L235A)
chain 1: not shown
chain 2: B1 chain 2 with I309N
notes: as for B1
With B3, in assay [1], the “Non-specific binding (RU)” value is 37 RU. The Kd was 2 nM in the assay with Human CD3 E+G HuFc-6xHis and below 0.02 nM with Human DLL3-His. Moreover, the binding result (in assay [2]; with EGF5+6; in assay [3]) was “no binding (tested: 1.6 nM)” each time.

Broadly, the Kd is the concentration at which binding is half-saturated.
